T1: PSTPIP, full-length, with a C-terminal FLAG epitope (murine, UniProt P97814 1-415)
T1 construct: In vitro transcribed/translated or expressed in COS cells from pRK.PIP.FLAG.C
T1 sequence: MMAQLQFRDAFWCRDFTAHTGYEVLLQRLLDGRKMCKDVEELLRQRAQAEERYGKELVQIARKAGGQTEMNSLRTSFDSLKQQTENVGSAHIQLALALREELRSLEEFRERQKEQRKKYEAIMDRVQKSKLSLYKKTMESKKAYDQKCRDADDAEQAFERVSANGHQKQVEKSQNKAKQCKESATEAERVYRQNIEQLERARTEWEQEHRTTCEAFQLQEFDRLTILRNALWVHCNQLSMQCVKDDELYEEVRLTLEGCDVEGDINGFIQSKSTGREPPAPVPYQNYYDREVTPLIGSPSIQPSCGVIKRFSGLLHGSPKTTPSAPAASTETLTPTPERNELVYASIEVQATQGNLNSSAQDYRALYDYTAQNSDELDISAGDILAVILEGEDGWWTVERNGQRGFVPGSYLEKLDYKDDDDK

B1: PXXP-PEP peptide, 782GFGNRFSKPKGPRNPPSAW800 (PTP PEP) (peptide)
peptide: GFGNRFSKPKGPRNPPSAW
notes: Synthetic peptide
B2: PXXP-PEST peptide, 761GFGNRCGKPKGPRDPPSEWT780 (PTP PEST) (peptide)
peptide: GFGNRCGKPKGPRDPPSEWT
notes: Synthetic peptide
B3: PXXP-HSCF peptide, 432GFNLRIGRPKGPRDPPAEWT451 (PTP HSCF) (peptide)
peptide: GFNLRIGRPKGPRDPPAEWT
notes: Synthetic peptide; also called C-terminally derived PTP HSCF peptide; peptide derived from the C-terminus of PTP HSCF

molecular target: T1, PSTPIP, full-length, with a C-terminal …; experiment: peptide competition of GST-PST-rich+CTH PTP HSCF pull-down of in vitro translated PSTPIP

Row | lowest concentration that blocks the interaction [nM] | Binder
1 | ~800 | B1
2 | ~800 | B2
3 | ~800 | B3

Source: patent publication EP0980426B1 (Genentech, Inc., dated 2004)
